According to IntAct's records for PubMed 17525340:

B1: BRCA1-A complex subunit Abraxas 1 (Homo sapiens), Q6UWZ7 (parent)
chain: MEGESTSAVLSGFVLGALAFQHLNTDSDTEGFLLGEVKGEAKNSITDSQMDDVEVVYTIDIQKYIPCYQLFSFYNSSGEVNEQALKKILSNVKKNVVGWYKFRRHSDQIMTFRERLLHKNLQEHFSNQDLVFLLLTPSIITESCSTHRLEHSLYKPQKGLFHRVPLVVANLGMSEQLGYKTVSGSCMSTGFSRAVQTHSSKFFEEDGSLKEVHKINEMYASLQEELKSICKKVEDSEQAVDKLVKDVNRLKREIEKRRGAQIQAAREKNIQKDPQENIFLCQALRTFFPNSEFLHSCVMSLKNRHVSKSSCNYNHHLDVVDNLTLMVEHTDIPEASPASTPQIIKHKALDLDDRWQFKRSRLLDTQDKRSKADTGSSNQDKASKMSSPETDEEIEKMKGFGEYSRSPTF
partner: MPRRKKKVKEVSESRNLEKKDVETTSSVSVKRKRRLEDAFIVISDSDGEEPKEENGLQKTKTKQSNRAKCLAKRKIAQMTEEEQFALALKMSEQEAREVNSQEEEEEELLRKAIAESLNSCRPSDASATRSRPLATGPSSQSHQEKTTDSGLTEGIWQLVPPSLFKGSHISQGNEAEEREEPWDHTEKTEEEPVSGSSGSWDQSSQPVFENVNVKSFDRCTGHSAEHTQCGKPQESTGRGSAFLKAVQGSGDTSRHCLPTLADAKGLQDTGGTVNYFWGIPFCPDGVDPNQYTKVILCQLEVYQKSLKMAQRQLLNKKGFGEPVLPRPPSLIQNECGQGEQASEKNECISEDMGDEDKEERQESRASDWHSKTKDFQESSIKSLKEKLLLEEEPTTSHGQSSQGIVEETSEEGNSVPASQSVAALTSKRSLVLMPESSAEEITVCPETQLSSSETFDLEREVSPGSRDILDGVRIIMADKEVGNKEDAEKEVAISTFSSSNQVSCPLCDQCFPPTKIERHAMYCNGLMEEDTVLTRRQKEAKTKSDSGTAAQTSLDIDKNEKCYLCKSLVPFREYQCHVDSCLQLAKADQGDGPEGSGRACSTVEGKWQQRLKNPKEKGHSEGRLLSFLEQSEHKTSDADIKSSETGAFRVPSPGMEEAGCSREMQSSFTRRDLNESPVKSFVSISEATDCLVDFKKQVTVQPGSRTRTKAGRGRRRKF
B2: BRCA1-A complex subunit Abraxas 1 (Homo sapiens), Q6UWZ7 (parent)
chain: B1 chain

Variants of: B1
Settings: with uimc1_human UIMC1, Q96RL1

| effect of a mutation on the interaction | Variant |
| --- | --- |
| disrupting interaction | MEGESTSAVLSGFVLGALAFQHLNTDSDTEGFLLGEVKGEAKNSITDSQMDDVEVVYTIDIQKYIPCYQLFSFYNSSGEVNEQALKKILSNVKKNVVGWYKFRRHSDQIMTFRERLLHKNLQEHFSNQDLVFLLLTPSIITESCSTHRLEHSLYKPQKGLFHRVPLVVANLGMSEQLGYKTVSGSCMSTGFSRAVQTHSSKFFEEDGSLKEVHKINEMYASLQEELKSICKKVEDSEQAVDKLVKDVNRLKREIEKRRGAQIQAAREKNIQKDPQENIFLCQALRTFFPNSEFLHSCVMSLKNRHVSKSSCNYNHHLDVVDNLTLMVEHTDIPEASPASTPQIIKHKALDLDDRWQFKRSRLLDTQDKRSKADTGSSNQDKASKMSSPETDEEIEKMKGFGEYSRAPTF [S406A] |

Variants of: B2
Settings: with brca1_human BRCA1, P38398
Chain of brca1_human BRCA1, P38398 (P38398 whole entry, looked up): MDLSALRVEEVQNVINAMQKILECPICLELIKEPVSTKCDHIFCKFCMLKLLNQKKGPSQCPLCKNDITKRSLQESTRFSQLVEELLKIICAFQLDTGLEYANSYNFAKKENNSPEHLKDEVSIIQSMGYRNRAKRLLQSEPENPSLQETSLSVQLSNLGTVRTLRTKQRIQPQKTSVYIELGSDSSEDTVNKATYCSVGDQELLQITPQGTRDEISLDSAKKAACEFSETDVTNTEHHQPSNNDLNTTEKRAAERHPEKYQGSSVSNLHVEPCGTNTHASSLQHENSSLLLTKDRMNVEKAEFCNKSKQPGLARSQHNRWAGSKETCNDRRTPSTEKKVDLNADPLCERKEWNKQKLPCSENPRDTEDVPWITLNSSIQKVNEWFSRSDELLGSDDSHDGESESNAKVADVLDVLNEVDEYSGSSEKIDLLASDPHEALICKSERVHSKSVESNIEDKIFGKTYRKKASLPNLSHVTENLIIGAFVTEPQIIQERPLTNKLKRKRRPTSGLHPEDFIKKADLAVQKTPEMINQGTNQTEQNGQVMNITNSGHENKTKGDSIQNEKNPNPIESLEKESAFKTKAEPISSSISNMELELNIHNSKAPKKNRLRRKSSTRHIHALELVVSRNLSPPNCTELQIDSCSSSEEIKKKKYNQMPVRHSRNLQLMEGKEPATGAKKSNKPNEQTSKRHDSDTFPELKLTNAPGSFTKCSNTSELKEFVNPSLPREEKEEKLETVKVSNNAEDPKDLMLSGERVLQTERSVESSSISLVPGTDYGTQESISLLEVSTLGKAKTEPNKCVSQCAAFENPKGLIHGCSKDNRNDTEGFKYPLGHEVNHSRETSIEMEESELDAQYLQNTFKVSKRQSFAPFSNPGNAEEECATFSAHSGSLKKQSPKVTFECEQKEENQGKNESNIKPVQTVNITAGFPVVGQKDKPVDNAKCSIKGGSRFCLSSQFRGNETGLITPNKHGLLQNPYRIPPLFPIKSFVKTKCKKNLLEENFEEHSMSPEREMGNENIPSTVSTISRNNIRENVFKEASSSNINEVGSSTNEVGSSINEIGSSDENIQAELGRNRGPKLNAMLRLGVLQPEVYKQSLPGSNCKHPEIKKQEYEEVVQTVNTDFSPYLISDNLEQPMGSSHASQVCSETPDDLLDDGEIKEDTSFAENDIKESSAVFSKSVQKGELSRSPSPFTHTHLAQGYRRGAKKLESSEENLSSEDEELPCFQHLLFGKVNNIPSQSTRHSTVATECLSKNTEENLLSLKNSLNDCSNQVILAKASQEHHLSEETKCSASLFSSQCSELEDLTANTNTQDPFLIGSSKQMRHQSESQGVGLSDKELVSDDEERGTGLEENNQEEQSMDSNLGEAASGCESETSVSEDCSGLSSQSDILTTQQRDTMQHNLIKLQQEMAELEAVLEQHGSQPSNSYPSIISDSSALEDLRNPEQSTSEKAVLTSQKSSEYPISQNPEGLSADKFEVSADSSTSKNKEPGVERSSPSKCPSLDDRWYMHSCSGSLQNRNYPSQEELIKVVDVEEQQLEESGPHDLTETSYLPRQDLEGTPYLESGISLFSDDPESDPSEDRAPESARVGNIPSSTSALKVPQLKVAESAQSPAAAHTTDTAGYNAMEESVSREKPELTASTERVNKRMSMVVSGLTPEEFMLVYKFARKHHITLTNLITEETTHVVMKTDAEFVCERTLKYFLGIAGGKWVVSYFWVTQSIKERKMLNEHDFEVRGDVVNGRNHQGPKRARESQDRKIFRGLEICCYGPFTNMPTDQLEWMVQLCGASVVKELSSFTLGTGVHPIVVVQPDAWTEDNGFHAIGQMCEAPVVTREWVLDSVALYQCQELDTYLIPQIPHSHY

| effect of a mutation on the interaction | Variant |
| --- | --- |
| disrupting interaction | MEGESTSAVLSGFVLGALAFQHLNTDSDTEGFLLGEVKGEAKNSITDSQMDDVEVVYTIDIQKYIPCYQLFSFYNSSGEVNEQALKKILSNVKKNVVGWYKFRRHSDQIMTFRERLLHKNLQEHFSNQDLVFLLLTPSIITESCSTHRLEHSLYKPQKGLFHRVPLVVANLGMSEQLGYKTVSGSCMSTGFSRAVQTHSSKFFEEDGSLKEVHKINEMYASLQEELKSICKKVEDSEQAVDKLVKDVNRLKREIEKRRGAQIQAAREKNIQKDPQENIFLCQALRTFFPNSEFLHSCVMSLKNRHVSKSSCNYNHHLDVVDNLTLMVEHTDIPEASPASTPQIIKHKALDLDDRWQFKRSRLLDTQDKRSKADTGSSNQDKASKMSSPETDEEIEKMKGFGEYSRAPTF [S406A] |

Variants of: B2
Settings: with brca1_human BRCA1, P38398
Remark: another data set of the same source

| effect of a mutation on the interaction | Variant |
| --- | --- |
| increasing interaction | MEGESTSAVLSGFVLGALAFQHLNTDSDTEGFLLGEVKGEAKNSITDSQMDDVEVVYTIDIQKYIPCYQLFSFYNSSGEVNEQALKKILSNVKKNVVGWYKFRRHSDQIMTFRERLLHKNLQEHFSNQDLVFLLLTPSIITESCSTHRLEHSLYKPQKGLFHRVPLVVANLGMSEQLGYKTVSGSCMSTGFSRAVQTHSSKFFEEDGSLKEVHKINEMYASLQEELKSICKKVEDSEQAVDKLVKDVNRLKREIEKRRGAQIQAAREKNIQKDPQENIFLCQALRTFFPNSEFLHSCVMSLKNRHVSKSSCNYNHHLDVVDNLTLMVEHTDIPEASPASTPQIIKHKALDLDDRWQFKRSRLLDTQDKRSKADTGSSNQDKASKMSSPETDEEIEKMKGFGEYSRAPTF [S406A] |
